Laboratory results published in patent US9260754B2, “Connexin mutation detection for lymphatic variation and disease” (University of Pittsburgh—Of the Commonwealth System of …, priority 2010, dated 2016).
Where no end group is shown, it is not given here.

B1: P381S: Cx47 missense mutant P381S (1141C>T), C terminal, construct expressed in HeLa cells or LECs (protein, listed as Homo sapiens)
chain: MSWSFLTRLLEEIHNHSTFVGKVWLTVLVVFRIVLTAVGGEAIYSDEQAKFTCNTRQPGCDNVCYDAFAPLSHVRFWVFQIVVISTPSVMYLGYAVHRLARASEQERRRALRRRPGPRRAPRAHLPPPHAGWPEPADLGEEEPMLGLGEEEEEEETGAAEGAGEEAEEAGAEEACTKAVGADGKAAGTPGPTGQHDGRRRIQREGLMRVYVAQLVARAAFEVAFLVGQYLLYGFEVRPFFPCSRQPCPHVVDCFVSRPTEKTVFLLVMYVVSCLCLLLNLCEMAHLGLGSAQDAVRGRRGPPASAPAPAPRPPPCAFPAAAAGLACPPDYSLVVRAAERARAHDQNLANLALQALRDGAAAGDRDRDSSPCVGLPAASRGSPRAGAPASRTGSATSAGTVGEQGRPGTHERPGAKPRAGSEKGSASSRDGKTTVWI

Tests used:
[1] = tested on: hTERTs (telomerase-transfected human dermal lymphatic endothelial cells); assay: Intercellular communication assay (parachute Calcein AM dye transfer) with gap junction inhibitors; format: cell-based; details: GRA 10 μM, Gap 27 500 μM, 40 min, versus control, p<0.05
Experimental: To characterize intercellular gap junction communication over time between seeded donor cells and an acceptor monolayer, LECs were loaded with 2.5 μM Calcein-AM (Invitrogen) in (PBS) for 30 min at 37° C. Excessive dye was removed by rinsing three times in PBS before dislodgment using 500 μl 0.25% Trypsin-EDTA. Detached cells were dispersed with a pipette and 10 μl cell suspensions was added to a confluent LEC monolayer in MCDB-131 supplemented with 25 mM HEPES. To ensure attachment of dye loaded suspended cells, the dish was incubated at 37° C. for 40 min prior to syringe filtration of the medium to remove floating cells that would interfere with subsequent imaging. The dish was thereafter mounted in a temperature controlled open chamber microincubator (Harvard Apparatus) on an inverted Olympus IX81 microscope. […] The Gap27 was handled similarly to GRA and a DMSO control was measured on the same day. Significance was assigned at p<0.05 and treatments were analyzed as independent samples using a Student's t-test. […]
Calcein AM allows cell permeable loading, and with a molecular weight of 662, is frequently used in gap junction communication studies. […] Replicate blinded experiments were performed on at least 2 separate days, and quantitation of dye spread was determined in an automated manner using Metamorph and standardized regions of interest with auto-thresholding. […]

HeLa cell pairs = assay: Dual whole cell patch clamp recording of coupling current in transfected HeLa cell pairs; format: cell-based, human
Experimental: Coupling currents were recorded using simultaneous double whole-cell patch clamp recordings from isolated pairs of cells that were in contact with one another (determined visually) as previously described. Briefly, the pipette solution consisted of (mM): 130 CsCl, 10 EGTA, 10 HEPES, 3 Mg-ATP, 2 Na-ATP, 0.5 CaCl2, pH 7.3. The culture was bathed in a solution consisting of (mM): 140 NaCl, 5 HEPES, 5 glucose, 4 KCl, 2 CsCl, 2 CaCl2, 2 pyruvate, 1 BaCl2, pH 7.3. Transfected HeLas undergo electrophysiologic analysis in a blinded manner. Pairs of cells were chosen for study only if both expressed the GFP marker indicative of successful transfections; both stable and transient transfectants were analyzed. Patch pipettes were fabricated from borosilicate glass, and coupling currents were amplified by Axopatch 200A amplifiers, filtered at 1 KHz, and digitized at 5 KHz for subsequent analysis using pClamp software (Axon Instruments/Molecular Devices; Sunnyvale, Calif.). All experiments were carried out at room temperature (22° C.). Coupling current was quantified by measuring the peak current recorded in the pair when the neighboring cell received a 100 mV step membrane potential change (in both positive and negative directions). Step changes in membrane potential were delivered to each cell in the pair in sequence and the average current recorded in the neighboring cell was determined and divided by 100 to generate coupling current expressed in pA/mV. Means±SEM were calculated and statistical significance using a one-way analysis of variance and Tukey's post-hoc test, p<0.05.
Coupling current is quantified by measuring the peak current recorded in the pair when the neighboring cell receives a 100 mV step membrane potential change (in both positive and negative directions). Step changes in membrane potential are delivered to each cell in the pair in sequence and the average current recorded in the neighboring cell determined and divided by 100 to generate coupling current expressed in pA/mV (FIG. 6C). Replicate measurements (n=3-6) are made on at least two different days. […] The untransfected HeLa cell pairs also show minimal channel function, as predicted.
Electrophysiologic characteristics of GJIC were measured between HeLa cell pairs transfected with the mutant constructs (as indicated by EGFP expression) by dual whole cell patch clamp recording. All experiments were carried out in a blinded manner. Coupling current is quantified by measuring the peak current recorded in the pair when the neighboring cell receives a 100 mV step membrane potential change (in both positive and negative directions). Step changes in membrane potential are delivered to each cell in the pair in sequence and the average current recorded in the neighboring cell determined and divided by 100 to generate coupling current expressed in pA/mV. Untransfected HeLa cells and cells transfected with empty vector (i.e., no hCx47) were used as additional controls.

[2] = tested on: Adult human dermal lymphatic microvascular endothelial cells; assay: Lucifer yellow microinjection dye spread in lymphatic endothelial cells expressing mutant constructs; format: cell-based
Experimental: Adult human dermal lymphatic microvascular endothelial cells were cultured in EGM™-2 MV (both from Lonza). Cells were electroporated with 2 μg cDNA of the EGFP tagged mutant constructs and then selected with G418 as described above. Cells were microinjected using a combination (1:4 ratio) of 70 kd Texas Red dextran (Invitrogen) to mark injected cell for reference and Lucifer yellow, a known gap junction permeable dye (m.w. 443, −2 charge), to assess change in extent of spread (Abbaci M, et al. Advantages and limitations of commonly used methods to assay the molecular permeability of gap junctional intercellular communication. Biotechniques 2008; 45:33-52, 6-62). All cells were injected using constant conditions and cells were scored for dye spread in tiers from reference cell, using constant exposure time and thresholding, and were imaged using a Nikon TE2000 with temperature controlled motorized stage and Qlmaging Retiga CCD camera. Images were obtained using differential interference contrast (DIC) and standard filters for EGFP (identify expression of mutation), DAPI (for Lucifer yellow) and dsRed (for dextran) preinjection, immediately post-injection and 2 min after injection. Results were calculated as mean SEM and statistical significance was determined in comparison to WT-hCx47-EGFP expressing cells using a Mann-Whitney Test.

HeLa cells [3] = assay: Cx47 gap junction plaque formation by immunofluorescent confocal microscopy in transfected HeLa cells; format: cell-based, human; details: near confluent transfected HeLa cells
Experimental: Human neonatal foreskin was collected anonymously as discarded tissue according to an IRB protocol. Samples were collected immediately after harvest in DMEM, then fixed in 2% paraformaldehyde for 2 hrs, then stored in 30% sucrose in 1×PBS overnight for cryosectioning, and sectioned in 6 μm slices at −30° C. Transfected (stable and transient) and untransfected HeLa cells were grown to near confluence in coverslip bottom dishes. All cells were rinsed with PBS and fixed with 2% paraformaldehyde. Subsequently, tissue and HeLa cells were processed similarly: following permeabilization with 0.1% Triton X, cells were blocked with 2% BSA. A human Cx47 antibody (ab) was obtained from the S. Scherer laboratory: polyclonal rabbit against amino acids 344-399 in the cytoplasmic C-terminal tail; we used human CNS tissue and positive oligodendrocyte staining as a positive control and primary antibody delete and rabbit IgG as negative controls (data not shown). Cx47 ab was diluted in 0.5% BSA in a 1:200 ratio, applied to cells and incubated at RT for one hour. Mouse monoclonal Proxl (Chemicon) was used as a lymphatic marker for the foreskin samples. Cells were incubated with the secondary abs (Donkey Anti-Rabbit Cy5 and Donkey Anti-Mouse Cy3; Invitrogen) for one hour at RT and washed; Draq5 was used as a nuclear marker. HeLa images were acquired with an inverted Olympus Fluoview 1000 Confocal Microscope 100× oil, 1.4 NA objective. Foreskin images were acquired on a Zeiss Meta LSM 510 inverted confocal microscope with 40× oil, 1.3 N.A. objective. LECs (primary human microvascular adult dermal lymphatics; Lonza) were grown in fibronectin coated coverslip bottom MatTeks dishes in EGM™-2 MV—Microvascular Endothelial Cell Medium-2 (Lonza Inc.) to approximately 80% confluence, and prepared similarly but a commercially available (AbCam) Cx47 ab, polyclonal rabbit against amino acids 41-70 in the human sequence was used along with Drag 5 nuclear marker and phalloidin to mark f-actin.
Immunofluorescence microscopy determines the presence or absence of Cx47 gap junction plaques when the constructs are transiently expressed in HeLa cells. Cx plaques reflect a physiologic accumulation of Cx channels in the cell membrane between cells (tens to thousands of channels); thus plaques are indicative of normal trafficking and gap junction formation at the cell membrane.
Immunofluorescence microscopy determines the presence or absence of Cx47 gap junction plaques when the constructs are transiently expressed in HeLa cells. A human Cx47 antibody was obtained: polyclonal rabbit against amino acids 344-399 in the cytoplasmic C-terminal tail (Orthmann-Murphy J L, et al. Mol Cell Neurosci 2007; 34:629-41); we used human CNS tissue and positive oligodendrocyte staining as a positive control and primary antibody delete as a negative control (data not shown). Cultured HeLa cells were routinely fixed and stained with the primary antibodies against Cx47, along with a nuclear marker, and transfected cells were identified by their EGFP signal. Plaques were imaged using an Olympus Fluoview 1000 confocal microscope, 100× oil objective.

HeLa cells [4] = assay: Wound assay (proliferation/migration) in confluent transfected HeLa cells; format: cell-based, human; details: fraction of original wound in HeLa cell monolayer after 24 hrs; mean ± SEM
Experimental: The wound assay, a measure of proliferation/migration, was performed using differential interference contrast time lapse of over 24 hrs using confluent transfected HeLa cells. Analysis was done using TScratch (Geback T, et al. TScratch: a novel and simple software tool for automated analysis of monolayer wound healing assays. Biotechniques 2009; 46:265-74), mean±SEM of at least 10 positions along wound; the scrape width was normalized to the first image for each position. In all cases a two tailed student's T test was applied with p<0.05 considered significant.

Row | Molecule | GJIC by dye transfer in response to gap junction inhibitors [1] | electrical coupling (HeLa cell pairs; Table 6 (Example 4), HeLa cell pairs, 100 mV step, mean ± SEM) [pA/mV] | electrical coupling / functional channels in HeLa cell pairs (in words) (HeLa cell pairs; transfected HeLa cell pairs, voltage step protocol −100 to +100 mV) | LEC spread ([2]; Dye spread to tiers of LECs after 2 min, Lucifer yellow microinjection, mean ± SEM) [tiers] | dye transfer of Lucifer yellow after microinjection compared to WT-hCx47-EGFP expressing LECs (in words) ([2]; LECs expressing the mutations) | Cx47 plaque formation (in words) (HeLa cells [3]) | wound assay (HeLa cells [4])
1 | CC1(C)[C@@H](O)CC[C@]2(C)[C@H]3C(=O)C=C4[C@@H]5C[C@@](C)(C(=O)O)CC[C@]5(C)CC[C@@]4(C)[C@]3(C)CC[C@@H]12 [GRA, 18α-glycyrrhetinic acid] | significantly reduced | – | – | – | – | – | –
2 | SRPTEKTIFII [Gap 27, Synthetic connexin-mimetic peptide targeted to extracellular loop 2 of Cx43] | significantly reduced | – | – | – | – | – | –
3 | B1 | – | 48.2 | well coupled | 2.26 | significantly enhanced dye transfer | Cx47 intercellular plaques | 0.70
